According to FireProtDB (doi:10.1021/bi00102a015):

Conditions: Rhodobacter capsulatus (strain ATCC BAA-309 / NBRC 16581 / SB1003); pH 7.5; 25 °C; GdnHCl; CD; Tris-HCl 20 mM; NaCl 40 mM; whole UniProt chain shown

B1: Cytochrome c2 wild type, P00094 (protein)
chain: MKISLTAATVAALVLAAPAFAGDAAKGEKEFNKCKTCHSIIAPDGTEIVKGAKTGPNLYGVVGRTAGTYPEFKYKDSIVALGASGFAWTEEDIATYVKDPGAFLKEKLDDKKAKTGMAFKLAKGGEDVAAYLASVVK
  denaturant m value: 2.7 kcal/mol/M
  denaturant midpoint (higher = more stable): 1.7 M
  unfolding free energy: 4.4 kcal/mol
